In patent publication US20210246451, “APTAMER FOR ADAMTS5 AND USE FOR APTAMER FOR ADAMTS5” (RIBOMIC INC., published 2021):

T1: ADAMTS5 (UniProt Q9UNA0 Q9UNA0:262-622)
T1 sequence: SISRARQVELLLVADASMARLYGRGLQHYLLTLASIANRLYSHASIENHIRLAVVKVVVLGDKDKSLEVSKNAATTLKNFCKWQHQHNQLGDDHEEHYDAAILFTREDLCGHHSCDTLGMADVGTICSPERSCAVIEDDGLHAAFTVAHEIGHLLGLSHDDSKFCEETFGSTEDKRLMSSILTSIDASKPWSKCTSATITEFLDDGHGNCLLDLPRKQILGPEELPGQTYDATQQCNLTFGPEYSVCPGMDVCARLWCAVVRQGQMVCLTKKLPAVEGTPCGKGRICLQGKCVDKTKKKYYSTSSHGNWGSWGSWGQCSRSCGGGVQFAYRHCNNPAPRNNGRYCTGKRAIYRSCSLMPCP


Legend:
ADAMTS5 [1] = target: T1, ADAMTS5; experiment: inhibition; 10 nM; details: tags: R&D Systems
Protocol: Whether an aptamer having the nucleotide sequence shown in SEQ ID NO: 1 inhibits the enzyme activity of ADAMTS5 was evaluated by the following method. As a substrate of ADAMTS5, the G1-IGD-G2 domain of aggrecan (manufactured by R&D systems) was used. ADAMTS5 specifically cleaves in between the 392nd glutamic acid and the 393rd alanine in the G1-IGD-G2 domain and produces two fragments. These fragments have faster electrophoretic mobility than uncleaved G1-IGD-G2. Thus, the enzyme activity of ADAMTS5 can be measured by quantifying the band intensity of G1-IGD-G2 by SDS-PAGE electrophoresis. The assay was performed in a solution A buffer with a reaction mixture volume of 10 μL. First, a mixture (10 μL) of a nucleic acid and ADAMTS5 was prepared and incubated at 25° C. for 15 min. To a substrate solution (5 μL) diluted with solution A was added a mixture (5 μL) of the nucleic acid and ADAMTS5 to start the enzyme reaction. The final concentration of ADAMTS5 in the reaction solution was 5 nM, and the final substrate concentration was 50 μg/mL. The reaction solution was incubated at 37° C. for 2 hr, 2 μL of solution D was added, and the mixture was heated at 95° C. for 2 min to stop the enzyme reaction of ADAMTS5. Solution D contains 0.25 M tris (pH 6.8), 10% SDS, 50% glycerol, 0.25% bromo phenolblue, and 20% 2-mercaptoethanol. The heat-treated reaction solution was electrophoresed by 7.5% SDS-PAGE and stained with SYPRO Orange (manufactured by Sigma-Aldrich). The staining was performed according to the manual of Sigma-Aldrich and detected using STORM840 manufactured by GE Healthcare. […] The amount of uncleaved substrate in each reaction solution was quantified from the band intensity and the standard curve. The substrate cleavage efficiency of ADAMTS5 under these reaction conditions was 80-100%. The inhibition rate of the test substance was calculated using the following equation.
The aptamers having the sequences shown in SEQ ID NOs: 10(1)-10(8) and 11(1)-11(35), SEQ ID NO: 13-15 were all produced by chemical synthesis.

ADAMTS5 [2] = target: T1, ADAMTS5; experiment: SPR; RU ratio >=40%; details: tags: R&D Systems

Row | Binder | activity (ADAMTS5 [1]) [% inhibition] | binding result (ADAMTS5 [2])
1 | AUUGGGGCCUCCACAGCUGCUCAGCUUGGACUAAACCAAU (ssRNA, as SEQ 10 plus 2'-OMe at C8) [10(1)] | 41.3 | 
2 | AUUGGGGCCUCCACAGCUGCUCAGCUUGGACUAAACCAAU (ssRNA, as SEQ 10 plus 2'-OMe at C31) [10(7)] | 10.4 | 
3 | AUUGGGGCCUCCACAGCUGCUCAGCUUGGACUAAACCAAU (ssRNA, as SEQ 10 plus 2'-OMe at C11) [10(4)] | 3.6 | 
4 | AUUGGGGCCUCCACAGCUGCUCAGCUUGGACUAAACCAAU (ssRNA, as SEQ 10 plus 2'-OMe at C9) [10(2)] | 12.6 | 
5 | AUUGGGGCCUCCACAGCUGCUCAGCUUGGACUAAACCAAU (ssRNA, as SEQ 10 plus 2'-OMe at C12) [10(5)] | 8.5 | 
6 | AUUGGGGCCUCCACAGCUGCUCAGCUUGGACUAAACCAAU (ssRNA, as SEQ 10 plus 2'-OMe at U32) [10(8)] | 12.8 | 
7 | AUUGGGGCCUCCACAGCUGCUCAGCUUGGACUAAACCAAU (ssRNA, as SEQ 10 plus 2'-OMe at U10) [10(3)] | 2 | 
8 | AUUGGGGCCUCCACAGCUGCUCAGCUUGGACUAAACCAAU (ssRNA, as SEQ 10 plus 2'-OMe at U27) [10(6)] | 61.8 | 
9 | GGGUAUUGGGGCCUCCACGCUAGAAGGCUGGACUAAACCAACUCGA (ssRNA, 2'-F pyrimidines) [SEQ ID NO: 38] |  | binds
10 | GGGUAUUGGGGCCUCCACGCAAUGGUGCUGGACUAAACCAACUCGA (ssRNA, 2'-F pyrimidines) [SEQ ID NO: 40] |  | binds
11 | GGGUAUUGGGGCCUCCACAUGGAUACAUUGGACUAAACCAACUCGA (ssRNA, 2'-F pyrimidines) [SEQ ID NO: 41] |  | binds
12 | AUUGGGGCCUCCACAGCGCUCGCUUGGACUAAACCAAU (ssRNA, 2'-OMe at 1-5,15-26,32-38; 2'-F other pyrimidines) [11(1)] | 62.8 | 
13 | AUUGGGGCCUCCACAGCGCUCGCUUGGACUAAACCAAU (mixed, as 11(1) with dA at 28) [11(11)] | 32 | 
14 | AUUGGGGCCUCCACAGCGCUCGCUUGGACUAAACCAAU (mixed, as 11(1) with dG at 6) [11(2)] | 60.6 | 
15 | GCUGGGGCCUCCACAGCGCUCGCUUGGACUAAACCAGC (ssRNA, 2'-OMe at 1-5,15-26,32-38; 2'-F other pyrimidines) [SEQ ID NO: 13] | 58.4 | 
16 | AUUGGGGCCUCCACAGCGCUCGCUUGGACUAAACCAAU (mixed, as 11(1) with dT at 10) [11(6)] | 9.2 | 
17 | AUUGGGGCCUCCACAGCGCUCGCUUGGACUAAACCAAU (ssRNA, as 11(1) with PS between 9 and 10) [11(20)] | 74.7 | 
18 | AUUGGGGCCUCCACAGCUUCGGCUUGGACUAAACCAAU (ssRNA, 2'-OMe at 1-5,15-26,32-38; 2'-F other pyrimidines) [SEQ ID NO: 14] | 60.5 | 
19 | AUUGGGGCCUCCACAGCGCUCGCUUGGACUAAACCAAU (ssRNA, as 11(1) with PS between 7 and 8) [11(18)] | 60.3 | 
20 | AUUGGGGCCUCCACAGCGCUCGCUUGGACUAAACCAAU (ssRNA, as 11(1) with 5' 40 kDa branched PEG and 3' idT) [11(33)] | 55.5 | 
21 | AUUGGGGCCUCCACAGCGCUCGCUUGGACUAAACCAAU (mixed, as 11(1) with dC at 9) [11(5)] | 34.2 | 
22 | AUUGGGGCCUCCACAGCGCUCGCUUGGACUAAACCAAU (ssRNA, as 11(1) with PS between 10 and 11) [11(21)] | 80.3 | 
23 | AUUGGGGCCUCCACAGCGCUCGCUUGGACUAAACCAAU (mixed, as 11(1) with dT at 30) [11(13)] | 20.3 | 
24 | AUUGGGGCCUCCACAGCGCUCGCUUGGACUAAACCAAU (ssRNA, as 11(1) with PS between 8 and 9) [11(19)] | 81.1 | 

Row | Binder | activity (ADAMTS5 [1]) [% inhibition] | binding result (ADAMTS5 [2])
25 | AUUGGGGCCUCCACAGCGCUCGCUUGGACUAAACCAAU (mixed, as 11(1) with dA at 31) [11(14)] | 45.1 | 
26 | AUUGGGGCCUCCACAGCGCUCGCUUGGACUAAACCAAU (ssRNA, as 11(1) with PS between 6 and 7) [11(17)] | 70 | 
27 | AUUGGGGCCUCCACAGCGCUCGCUUGGACUAAACCAAU (ssRNA, as 11(1) with PS between 8-9, 9-10, 10-11, 14-15; 3' idT) [11(32)] | 58.8 | 
28 | AUUGGGGCCUCCACAGCGCUCGCUUGGACUAAACCAAU (ssRNA, as 11(1) with PS between 5 and 6) [11(16)] | 50.9 | 
29 | AUUGGGGCCUCCACAGCGCUCGCUUGGACUAAACCAAU (mixed, as 11(1) with dA at 13) [11(15)] | 50.4 | 
30 | AUUGGGGCCUCCACAGCGCUCGCUUGGACUAAACCAAU (ssRNA, as 11(1) with PS between 30 and 31) [11(30)] | 38.3 | 
31 | AUUGGGGCCUCCACAGCGCUCGCUUGGACUAAACCAAU (mixed, as 11(1) with dG at 27) [11(10)] | 59.1 | 
32 | AUUGGGGCCUCCACAGCGCUCGCUUGGACUAAACCAAU (mixed, as 11(1) with dC at 11) [11(7)] | 23 | 
33 | AUUGGGGCCUCCACAGCGCUCGCUUGGACUAAACCAAU (mixed, as 11(1) with dC at 29) [11(12)] | 62.5 | 
34 | AUUGGGGCCUCCACAGCGCUCGCUUGGACUAAACCAAU (mixed, as 11(1) with dG at 7) [11(3)] | 19.5 | 
35 | AUUGGGGCCUCCACAGCGCUCGCUUGGACUAAACCAAU (mixed, as 11(1) with dC at 14) [11(9)] | 60.8 | 
36 | AUUGGGGCCUCCACAGCGCUCGCUUGGACUAAACCAAU (mixed, as 11(1) with dC at 8) [11(4)] | 50.9 | 
37 | AUUGGGGCCUCCACAGCGCUCGCUUGGACUAAACCAAU (ssRNA, as 11(1) with PS between 14 and 15) [11(25)] | 76.4 | 
38 | AUUGGGGCCUCCACAGCGCUCGCUUGGACUAAACCAAU (mixed, as 11(1) with dC at 12) [11(8)] | 43.2 | 
39 | GGGUAUUGGGGCCUCCACGUAACUAAACUGGACUAAACCAACUCGA (ssRNA, 2'-F pyrimidines) [SEQ ID NO: 39] |  | binds
40 | GGGUAUUGGGGCCUCCACAGUUGAAGCUUGGACUAAACCAAUCUCGA (ssRNA, 2'-F pyrimidines) [SEQ ID NO: 31] |  | binds
41 | GGGUAUUGGGGCCUCCACAGAAAAAUCUUGGACUAAACCAAUCUCGA (ssRNA, 2'-F pyrimidines) [SEQ ID NO: 32] |  | binds
42 | GGGUAUUGGGGCCUCCACAGCCGAGGCUUGGACUAAACCAAUCUCGA (ssRNA, 2'-F pyrimidines) [SEQ ID NO: 33] |  | binds
43 | GGGUAUUGGGGCCUCCACAAUAGAUAAAUGGACUAAACCAACUCGA (ssRNA, 2'-F pyrimidines) [SEQ ID NO: 30] |  | binds
44 | GGGUAUUGGGGCCUCCACAGUAAAUUCUUGGACUAAACCAACUCGA (ssRNA, 2'-F pyrimidines) [SEQ ID NO: 37] |  | binds
45 | GGGUAUUGGGGCCUCCACAGAAAAAACUUGGACUAAACCAACUCGA (ssRNA, 2'-F pyrimidines) [SEQ ID NO: 34] |  | binds
46 | GGGUAUUGGGGCCUCCACAGUUUAAACUUGGACUAAACCAACUCGA (ssRNA, 2'-F pyrimidines) [SEQ ID NO: 36] |  | binds
47 | GGGUAUUGGGGCCUCCACAGUAAGCACUUGGACUAAACCAGCUCGA (ssRNA, 2'-F pyrimidines) [SEQ ID NO: 35] |  | binds
48 | GGGUAUUGGGGCCUCCACAGAUAAUUCUUGGACUAAACCAACUCGA (ssRNA, 2'-F pyrimidines) [SEQ ID NO: 42] |  | binds
